Results as given in US10844127.
Read-outs that look alike come from different tables or passages of the source.

What was measured:
Experiment in all cases: cell-based or functional assay
[1] = target: human EGFR, full length (human) (UniProt P00533)
[2] = target: human HER3 (ErbB-3) on BxPC-3 cells (human) (UniProt P21860)
[3] = target: human EGFR, full length (human) (UniProt P00533); remark: listed apart in the source
[4] = target: human HER3 (ErbB-3) on BxPC-3 cells (human) (UniProt P21860); remark: listed apart in the source

B1: MEHD7945A (antibody, INN chains, looked up, V domains shown)
VH: EVQLVESGGGLVQPGGSLRLSCAASGFTLSGDWIHWVRQAPGKGLEWVGEISAAGGYTDYADSVKGRFTISADTSKNTAYLQMNSLRAEDTAVYYCARESRVSFEAAMDYWGQGTLVTVSS
VL: DIQMTQSPSSLSASVGDRVTITCRASQNIATDVAWYQQKPGKAPKLLIYSASFLYSGVPSRFSGSGSGTDFTLTISSLQPEDFATYYCQQSEPEPYTFGQGTKVEIK
IC50 for BxPC-3 ligand-driven cell proliferation inhibition (pM) [1]: 260 pM | IC50 for BxPC-3 ligand-driven cell proliferation inhibition (pM) [2]: 260 pM | IC50 for BxPC-3 ligand-driven cell proliferation inhibition (pM) [3]: 287 pM | IC50 for BxPC-3 ligand-driven cell proliferation inhibition (pM) [4]: 287 pM
